According to the RNAGym collection of RNA variant scans (doi:10.1093/nar/gkz1192):

B1: CPEB3 Ribozyme (parent)
chain: UAACAGGGGGCCACAGCAGAAGCGUUCACGUCGCAGCCCCUGUCAGAUUCUGGUGAAUCUGCGAAUUCUGCUGUAUAUCUC

Variants of: B1
Assay: self-cleavage, relative activity (ratio to wild type); higher = more cleavage; in vitro, sequencing
In short: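 CPEB3 self-cleaving ribozyme mutant libraries were made by rounds of error-prone PCR, barcoded, and transcribed in vitro with T7 RNA polymerase for 5 hours at 37°C. Cleavage occurred during transcription and a 15 min DNase I step before EDTA stop. RNAs were reverse transcribed with template switching and Illumina-sequenced, with DNA sequencing mapping barcodes to variants. Relative activity is the variant's cleaved/total read fraction divided by wild type's (minimum 5 reads), averaged across three batches.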

Row | Variant | self-cleavage
1 | UAGCAGGGGGCCACAGCAGAAGCGUUCACGUCGCAGCCCCUGACAGAUUCUGGUGAAUCUGCGAAUUCUGCUGUAUAUCUC | 0.99
2 | UAGCAGGGGGCCACAGCAGAAGCGUUCACGUCGCAGCCCCUGCCAGAUUCUGGUGAAUCUGCGAAUUCUGCUGUAUAUCUC | 0.49
3 | UAGCAGGGGGCCACAGCAGAAGCGGUCACGUCGCAGCCCCUGUCAGAUUCUGGUGAAUCUGCGAAUUCUGCUGUAUAUCUC | 0.45
4 | UAGCAGGGGGCCACAGCAGAAGCGCUCACGUCGCAGCCCCUGUCAGAUUCUGGUGAAUCUGCGAAUUCUGCUGUAUAUCUC | 0.42
5 | UAGCAGGGGGCCACAGCAGAAGCGUUCACGCCGCAGCCCCUGUCAGAUUCUGGUGAAUCUGCGAAUUCUGCUGUAUAUCUC | 0.84
6 | UAGCAGGGGGCCACAGCAGAAGCGUUCACGACGCAGCCCCUGUCAGAUUCUGGUGAAUCUGCGAAUUCUGCUGUAUAUCUC | 0.61
7 | UAGCAGGGGGCCACAGCAGAAGCGUUCACGGCGCAGCCCCUGUCAGAUUCUGGUGAAUCUGCGAAUUCUGCUGUAUAUCUC | 0.76
8 | UAGCAGGGGGCCACAGCAGAAGCGUUCACGUCGCAGCCCCUGUCAGAUUCUGGUGAAGCUGCGAAUUCUGCUGUAUAUCUC | 0.39
9 | UAGCAGGGGGCCACAGCAGAAGCGUUCACGUCGCAGCCCCUGUCAGAUUCUGGUGAACCUGCGAAUUCUGCUGUAUAUCUC | 0.54
10 | UAGCAGGGGGCCACAGCAGAAGCGUUCACGUCGCAGCCCCUGUCAGAUUCUGGUGAAACUGCGAAUUCUGCUGUAUAUCUC | 0.43
11 | UAGCAGGGGGCCACAGCAGAAGCGUUCACGUCGCAGCCCCUGUCAGAUUCGGGUGAAUCUGCGAAUUCUGCUGUAUAUCUC | 0.98
12 | UAGCAGGGGGCCACAGCAGAAGCGUUCACGUCGCAGCCCCUGUCAGAUUCCGGUGAAUCUGCGAAUUCUGCUGUAUAUCUC | 0.94
13 | UAGCAGGGGGCCACAGCAGAAGCGUUCACGUCGCAGCCCCUGUCAGAUUCAGGUGAAUCUGCGAAUUCUGCUGUAUAUCUC | 1
14 | UAGCAGGGGGCCACAGCAGAAGCGUUCACGUCGCAGCCCCUGUCAGAUACUGGUGAAUCUGCGAAUUCUGCUGUAUAUCUC | 0.69
15 | UAGCAGGGGGCCACAGCAGAAGCGUUCACGUCGCAGCCCCUGUCAGAUCCUGGUGAAUCUGCGAAUUCUGCUGUAUAUCUC | 0.49
16 | UAGCAGGGGGCCACAGCAGAAGCGUUCACGUCGCAGCCCCUGUCAGAUUCUGGUGAAUCUGCGAAUACUGCUGUAUAUCUC | 0.52
17 | UAGCAGGGGGCCACAGCAGAAGCGUUCACGUCGCAGCCCCUGUCAGAUUCUGGUGAAUCUGCGAAUCCUGCUGUAUAUCUC | 0.33

Row | Variant | self-cleavage
18 | UAGCAGGGGGCCACAGCAGAAGCGUACACGUCGCAGCCCCUGUCAGAUUCUGGUGAAUCUGCGAAUUCUGCUGUAUAUCUC | 0.9
19 | UAGCAGGGGGCCACAGCAGAAGCGUCCACGUCGCAGCCCCUGUCAGAUUCUGGUGAAUCUGCGAAUUCUGCUGUAUAUCUC | 0.65
20 | UAGCAGGGGGCCACAGCAGAAGCGUUCACGUCGCAGCCCCCGUCAGAUUCUGGUGAAUCUGCGAAUUCUGCUGUAUAUCUC | 0.98
21 | UAGCAGGGGGCCACAGCAGAAGCGUUCACGUCGCAGCCCCGGUCAGAUUCUGGUGAAUCUGCGAAUUCUGCUGUAUAUCUC | 0.17
22 | UAGCAGGGGGCCACAGCAGAAGCGUUCACGUCGCAGCCCCAGUCAGAUUCUGGUGAAUCUGCGAAUUCUGCUGUAUAUCUC | 0.3
23 | UAGCAGGGGGCCACAGCAGAAGCGUUCACGUCGCAGCCCCUGUCAGAUUCUGGUGAAUCUGCGAAGUCUGCUGUAUAUCUC | 0.62
24 | UAGCAGGGGGCCACAGCAGAAGCGUUCACGUCGCAGCCCCUGUCAGAUUCUGGUGAAUCUGCGAACUCUGCUGUAUAUCUC | 0.4
25 | UAGCAGGGGGCCACAGCAGAAGCGUUCACGUCGCAGCCCCUGUCAGAUUCUGGUGAAUCUGCGAAAUCUGCUGUAUAUCUC | 0.64
26 | UAGCAGGGGGCCACAGCAGAAGCGUUCACGUCGCAGCCCCUGUCAGAGUCUGGUGAAUCUGCGAAUUCUGCUGUAUAUCUC | 0.54
27 | UAGCAGGGGGCCACAGCAGAAGCGUUCACGUCGCAGCCCCUGUCAGAAUCUGGUGAAUCUGCGAAUUCUGCUGUAUAUCUC | 0.37
28 | UAGCAGGGGGCCACAGCAGAAGCGUUCACGUCGCAGCCCCUGUCAGACUCUGGUGAAUCUGCGAAUUCUGCUGUAUAUCUC | 0.61
29 | UAGCAGGGGGCCACAGCAGAAGCGUUCACGUCGCAGCCCCUGUCAGAUUCUGGCGAAUCUGCGAAUUCUGCUGUAUAUCUC | 0.98
30 | UAGCAGGGGGCCACAGCAGAAGCGUUCACGUCGCAGCCCCUGUCAGAUUCUGGGGAAUCUGCGAAUUCUGCUGUAUAUCUC | 0.82
31 | UAGCAGGGGGCCACAGCAGAAGCGUUCACGUCGCAGCCCCUGUCAGAUUCUGGAGAAUCUGCGAAUUCUGCUGUAUAUCUC | 0.98
32 | UAGCAGGGGGCCACAGCAGAAGCGUUCACGUCGCAGCCCCUGUCAGAUUCUGGUGAAUCAGCGAAUUCUGCUGUAUAUCUC | 0.47
33 | UAGCAGGGGGCCACAGCAGAAGCGUUCACGUCGCAGCCCCUGUCAGAUUCUGGUGAAUCGGCGAAUUCUGCUGUAUAUCUC | 0.45
34 | UAGCAGGGGGCCACAGCAGAAGCGUUCACGUCGCAGCCCCUGUCAGAUUCUGGUGAAUCCGCGAAUUCUGCUGUAUAUCUC | 0.52
